Patent publication US20100184652A1

Target: pY213 peptide (14-residue Abi1 peptide containing phosphorylated tyrosine 213) (human)
Assay: SPR (Biacore 3000), biotinylated pY213 on streptavidin chip, GST-Abl SH2 injected, 1:1 model

Kd: 33.2 nM
Substance: GST-Abl SH2 domain fusion protein (from UniProt P00519 146-236)
